Source: patent publication US20250152742A1, “COMPOSITIONS AND METHODS FOR NEUROLOGICAL DISEASES” (Trames Bio, Inc., priority 2022, published 2025)
Residue numbers refer to the chain shown, from its start. Numbers in names are those of the source.

Tested on: engineered chimeric receptor SEQ ID NO: 33 and its mutants (human α7-nAChR ligand binding domain / human GlyRα1 ion pore domain) in Lenti-X 293T cells
Assay: YFP fluorescence quenching anion reporter plate reader assay (percent quench, EC50)
Assay type: cell-based
Conditions: for YFP fluorescence quenching using CNL001 (percent quench): receptor named in row; for YFP fluorescence quenching using Varenicline, 3 nM var: ligand Varenicline 3 nM; for YFP fluorescence quenching using Varenicline, 30 nM var: ligand Varenicline 30 nM; for YFP fluorescence quenching using Varenicline, 300 nM var: ligand Varenicline 300 nM; for YFP fluorescence quenching using Varenicline, 500 nM var: ligand Varenicline 500 nM; for YFP fluorescence quenching using Varenicline, 1 uM var: ligand Varenicline 1 uM
Procedure, shortened: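 Percent quench compares mean YFP signal over the final 10 s with the 15 s baseline before ligand, added in iodide-containing extracellular solution (pH 7.2). Cells were LX293T carrying a YFP anion reporter, transiently transfected with the channel construct; plates were preincubated 30 min at 37 °C.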

[1] = 1 nM CNL001, first column so headed
[2] = 1 nM CNL001, second column so headed
[3] = 1 nM brd (TC-5619/Bradanicline)
[4] = 3 nM brd (TC-5619/Bradanicline)
[5] = 10 nM CNL001, first column so headed
[6] = 10 nM CNL001, second column so headed
[7] = 10 nM brd (TC-5619/Bradanicline)
[8] = 30 nM brd (TC-5619/Bradanicline)
[9] = 50 nM CNL001, first column so headed
[10] = 50 nM CNL001, second column so headed
[11] = 100 nM CNL001, first column so headed
[12] = 100 nM CNL001, second column so headed
[13] = 300 nM brd (TC-5619/Bradanicline)
[14] = 1 uM CNL001, first column so headed
[15] = 1 uM CNL001, second column so headed

B1: CODA1039: engineered receptor: Y115E, Y210W in SEQ ID NO: 33 (protein)
chain: MRCSPGGVWLALAASLLHVSLQGEFQRKLYKELVKNYNPLERPVANDSQPLTVYFSLSLLQIMDVDEKNQVLTTNIWLQMSWTDHYLQWNVSEYPGVKTVRFPDGQIWKPDILLENSADERFDATFHTNVLVNSSGHCQYLPPGIFKSSCPMDLKNFPMDVQTCKLKFGSWSYGGWSLDLQMQEADISGYIPNGEWDLVGIPGKRSERFWECCKEPYPDVTFTVTMRRRMGYYLIQMYIPSLLIVILSWISFWINMDAAPARVGLGITTVLTMTTQSSGSRASLPKVSYVKAIDIWMAVCLLFVFSALLEYAAVNFVSRQHKELLRFRRKRRHHKSPMLNLFQEDEAGEGRFNFSAYGMGPACLQAKDGISVKGANNSNTTNPPPAPSKSPEEMRKLFIQRAKKIDKISRIGFPMAFLIFNMFYWIIYKIVRREDVHNQ
modifications: synthetic sequence of chimeric LGIC
[1]
  YFP fluorescence quenching using CNL001 (percent quench): −1.12%
[2]
  YFP fluorescence quenching using CNL001 (percent quench): −3.941%
[3]
  YFP fluorescence quenching using TC-5619/Bradanicline (percent quench): −5.55%
[4]
  YFP fluorescence quenching using TC-5619/Bradanicline (percent quench): 6.78%
[5]
  YFP fluorescence quenching using CNL001 (percent quench): 6.275%
[6]
  YFP fluorescence quenching using CNL001 (percent quench): 11.943%
[7]
  YFP fluorescence quenching using TC-5619/Bradanicline (percent quench): −2.7%
30 nM TC-6683
  YFP fluorescence quenching using TC-6683 (percent quench): −1.608%
[8]
  YFP fluorescence quenching using TC-5619/Bradanicline (percent quench): 34.43%
[9]
  YFP fluorescence quenching using CNL001 (percent quench): 12.949%
[10]
  YFP fluorescence quenching using CNL001 (percent quench): 18.635%
50 nM abt (ABT-126)
  YFP fluorescence quenching using ABT-126 (percent quench): −17.32%
[11]
  YFP fluorescence quenching using CNL001 (percent quench): 17.576%
[12]
  YFP fluorescence quenching using CNL001 (percent quench): 18.319%
100 nM CNL002
  YFP fluorescence quenching (percent quench): 21.85%
100 nM abt (ABT-126)
  YFP fluorescence quenching using ABT-126 (percent quench): −13.93%
100 nM azd0328
  YFP fluorescence quenching using AZD-0328 (percent quench): −10.45%
300 nM TC-6683
  YFP fluorescence quenching using TC-6683 (percent quench): −3.491%
300 nM abt (ABT-126)
  YFP fluorescence quenching using ABT-126 (percent quench): 9.9%
300 nM azd0328
  YFP fluorescence quenching using AZD-0328 (percent quench): −13%
[13]
  YFP fluorescence quenching using TC-5619/Bradanicline (percent quench): 70.05%
500 nM abt (ABT-126)
  YFP fluorescence quenching using ABT-126 (percent quench): 36.97%
[14]
  YFP fluorescence quenching using CNL001 (percent quench): 19.329%
[15]
  YFP fluorescence quenching using CNL001 (percent quench): 20.672%
1 uM CNL002
  YFP fluorescence quenching (percent quench): 47.37%
1 uM abt (ABT-126)
  YFP fluorescence quenching using ABT-126 (percent quench): 48.37%
3 uM TC-6683
  YFP fluorescence quenching using TC-6683 (percent quench): −6.153%
3 uM abt (ABT-126)
  YFP fluorescence quenching using ABT-126 (percent quench): 50.5%
10 uM abt (ABT-126)
  YFP fluorescence quenching using ABT-126 (percent quench): 58.13%
10 uM ach (acetylcholine)
  YFP fluorescence quenching (percent quench): −2.97%
30 uM CNL002
  YFP fluorescence quenching (percent quench): 59.97%
30 uM TC-6683
  YFP fluorescence quenching using TC-6683 (percent quench): −9.263%
30 uM abt (ABT-126)
  YFP fluorescence quenching using ABT-126 (percent quench): 64.1%
30 uM azd0328
  YFP fluorescence quenching using AZD-0328 (percent quench): 30.76%
50 uM abt (ABT-126)
  YFP fluorescence quenching using ABT-126 (percent quench): 66.67%
50 uM ach (acetylcholine)
  YFP fluorescence quenching (percent quench): −3.94%
100 uM TC-6683
  YFP fluorescence quenching using TC-6683 (percent quench): −9.19%
100 uM abt (ABT-126)
  YFP fluorescence quenching using ABT-126 (percent quench): 68.63%
100 uM ach (acetylcholine)
  YFP fluorescence quenching (percent quench): 0.35%
300 uM ach (acetylcholine)
  YFP fluorescence quenching (percent quench): −4.13%
500 uM ach (acetylcholine)
  YFP fluorescence quenching (percent quench): −5.18%
1 mM ach (acetylcholine)
  YFP fluorescence quenching (percent quench): 1.21%
3 mM ach (acetylcholine)
  YFP fluorescence quenching (percent quench): 26.69%
Ligand Facinicline 30 nM
  YFP fluorescence quenching using Facinicline, 30 nM fac: −13.46
Ligand Facinicline 300 nM
  YFP fluorescence quenching using Facinicline, 300 nM fac: 5.43
Ligand Facinicline 30 uM
  YFP fluorescence quenching using Facinicline, 30 uM fac: 49.06
Ligand TC-6987 1 uM
  YFP fluorescence quenching using TC-6987, 1 uM tc6987: 7.26
Ligand TC-6987 10 uM
  YFP fluorescence quenching using TC-6987, 10 uM tc6987: 11
Ligand TC-6987 500 uM
  YFP fluorescence quenching using TC-6987, 500 uM tc6987: 7.97
First column
  YFP fluorescence quenching using Varenicline, 3 nM var: −10.926
  YFP fluorescence quenching using Varenicline, 30 nM var: −5.661
  YFP fluorescence quenching using Varenicline, 300 nM var: −4.555
  YFP fluorescence quenching using Varenicline, 500 nM var: 9.172
  YFP fluorescence quenching using Varenicline, 1 uM var: 7.139
Second column
  YFP fluorescence quenching using Varenicline, 3 nM var: −7.395
  YFP fluorescence quenching using Varenicline, 30 nM var: −1.244
  YFP fluorescence quenching using Varenicline, 300 nM var: 1.081
  YFP fluorescence quenching using Varenicline, 500 nM var: 12.561
  YFP fluorescence quenching using Varenicline, 1 uM var: 12.664

B2: CODA1045: engineered receptor: R101W, Y210V in SEQ ID NO: 33 (protein)
chain: B1 chain with R101W, E115Y, W210V
modifications: synthetic sequence of chimeric LGIC
[1]
  YFP fluorescence quenching using CNL001 (percent quench): 0.804%
[2]
  YFP fluorescence quenching using CNL001 (percent quench): 11.275%
[3]
  YFP fluorescence quenching using TC-5619/Bradanicline (percent quench): −1.431%
[4]
  YFP fluorescence quenching using TC-5619/Bradanicline (percent quench): −14.993%
[5]
  YFP fluorescence quenching using CNL001 (percent quench): 15.843%
[6]
  YFP fluorescence quenching using CNL001 (percent quench): 16.619%
[7]
  YFP fluorescence quenching using TC-5619/Bradanicline (percent quench): −5.52%
30 nM TC-6683
  YFP fluorescence quenching using TC-6683 (percent quench): 1.735%
[8]
  YFP fluorescence quenching using TC-5619/Bradanicline (percent quench): 15.49%
[9]
  YFP fluorescence quenching using CNL001 (percent quench): 15.205%
[10]
  YFP fluorescence quenching using CNL001 (percent quench): 18.771%
50 nM abt (ABT-126)
  YFP fluorescence quenching using ABT-126 (percent quench): −24.16%
[11]
  YFP fluorescence quenching using CNL001 (percent quench): 9.332%
[12]
  YFP fluorescence quenching using CNL001 (percent quench): 18.218%
100 nM abt (ABT-126)
  YFP fluorescence quenching using ABT-126 (percent quench): −24.7%
100 nM brd (TC-5619/Bradanicline)
  YFP fluorescence quenching using TC-5619/Bradanicline (percent quench): 72.105%
300 nM TC-6683
  YFP fluorescence quenching using TC-6683 (percent quench): 0.642%
300 nM abt (ABT-126)
  YFP fluorescence quenching using ABT-126 (percent quench): −16.09%
[13]
  YFP fluorescence quenching using TC-5619/Bradanicline (percent quench): 71.411%
[14]
  YFP fluorescence quenching using CNL001 (percent quench): 35.294%
[15]
  YFP fluorescence quenching using CNL001 (percent quench): 36.542%
1 uM abt (ABT-126)
  YFP fluorescence quenching using ABT-126 (percent quench): −11.61%
3 uM TC-6683
  YFP fluorescence quenching using TC-6683 (percent quench): 2.403%
10 uM ach (acetylcholine)
  YFP fluorescence quenching (percent quench): −2.52%
30 uM TC-6683
  YFP fluorescence quenching using TC-6683 (percent quench): 6.006%
100 uM TC-6683
  YFP fluorescence quenching using TC-6683 (percent quench): −4.277%
100 uM ach (acetylcholine)
  YFP fluorescence quenching (percent quench): −11.98%
300 uM ach (acetylcholine)
  YFP fluorescence quenching (percent quench): −16.71%
500 uM ach (acetylcholine)
  YFP fluorescence quenching (percent quench): −12.87%
1 mM ach (acetylcholine)
  YFP fluorescence quenching (percent quench): −14.41%
3 mM ach (acetylcholine)
  YFP fluorescence quenching (percent quench): −7.4%
10 mM ach (acetylcholine)
  YFP fluorescence quenching (percent quench): −1.5%
First column
  YFP fluorescence quenching using Varenicline, 3 nM var: 6.745
  YFP fluorescence quenching using Varenicline, 30 nM var: 14.1
  YFP fluorescence quenching using Varenicline, 300 nM var: 16.83
  YFP fluorescence quenching using Varenicline, 500 nM var: 21.586
  YFP fluorescence quenching using Varenicline, 1 uM var: 31.591
Second column
  YFP fluorescence quenching using Varenicline, 3 nM var: 8.397
  YFP fluorescence quenching using Varenicline, 30 nM var: 19.095
  YFP fluorescence quenching using Varenicline, 300 nM var: 21.507
  YFP fluorescence quenching using Varenicline, 500 nM var: 23.131
  YFP fluorescence quenching using Varenicline, 1 uM var: 26.479
